The target in the series is T1, His-LexA (Synechocystis sp. PCC 6803) (UniProt P73722).
T1 sequence: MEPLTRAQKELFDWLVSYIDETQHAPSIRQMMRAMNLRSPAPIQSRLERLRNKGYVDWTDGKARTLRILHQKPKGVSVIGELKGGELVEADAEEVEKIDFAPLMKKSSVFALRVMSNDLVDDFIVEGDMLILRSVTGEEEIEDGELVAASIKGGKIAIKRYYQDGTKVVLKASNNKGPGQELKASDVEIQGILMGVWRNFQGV
Description: EMSA. The conditions noted are these: Roche DIG gel shift kit 2nd generation buffer per manufacturer plus 1 mM DTT, 25 min at room temperature, 6% polyacrylamide gel; 5x and 50x unlabeled …. (In general: Mobility shift assays separate free from complexed probe on a gel.)
Take “GTGACAACTAACATCACCTAGATGATAAGTTAATTTACAACAAATGATTGTTAGCCAGCTCACCAAAACCTGTGACAATAAACACCAAAACAGTTTACTTGTTTCTATAATTTTCCCTGAAACTGGGGTTTGAGAGGGTCTAGGGGAGAATTTAGTTATTGTTTGGATATATTGTCATGGCACCACAAAAGCCGTCAACAAA (double strand) [pilA9 promoter]”: the binding result was “binds”. Regarding “TGGGATCAAACAACAAGAAAAAATCAATTTACCCTGCCCATGGCAATAGTTTTAAGGTTAACAAAAAAAATAGAATTTACCGCAATCGACGGGTAAATTTCCAGAGGATACCCCCAACTCCAGAAGCAGAAATCTTGCCAGAAAAGCTTTTTCTGTTACTATACTTAACAAGTAACTACTTTTTCC (double strand) [ggpS promoter]”, the binding result is recorded as “binds”. “TGGGCAGGGTAAATTGATTTTTTCTTGTTGTTTGATCCCATTTTCCAGTCTTTTTGACTTCCATTCAGTCAGGATAATTTTTGCAGTTTTTTTATGGAGTTTTGATAACATTGAGCTTTGCCCCCGGCGATCGCCTAGGGATAAACAATAAACGTGTGAACTAATATGCCTGGATTTATCCCTGGATTGACATTGTTTTTGCC (double strand) [slr1670 promoter]”: the binding entry is given as “binds”. For “TTGTTCAAGATCATTAGGCTTTAGTATATTTATAGTGATCAAAAAAGCAAGTGGTGAAAGAAACACCCAGACAAATATTCACAAAACTTAATTTTACTTAACAAATCATAATCCAGTTACGCAGTTACCACCTACACGGGAACCAGAACGCACGATTCCCAAGCCGGAAGAAATTACTAAGCATGGCTCATAGGATGTTCTAC (double strand) [pilA7 promoter]”, the binding result is given as “binds”.

Source of the values: PMC4759255.
